Where two headings read alike, the source gives them in different places.

Results on 5 molecules are retold here after US8962271B2, “Fructosyl peptidyl oxidase” (Roche Diagnostics Operations, Inc., priority 2009, dated 2015).

In data set [1] the test system is fructosyl peptidyl oxidase FPOX-C (Coniochaeta sp. NISL 9330; GenBank: BAD00186.1). To be noted: cited from earlier work.
The subject of data set [2] is fructosyl peptidyl oxidase FPOX-E (Eupenicillum terrenum ATCC 18547; GenBank: BAD00185.1). Particulars: cited from earlier work.
For data set [3], the system named is CC(C)[C@H](NCC(=O)[C@@H](O)[C@H](O)[C@H](O)CO)C(=O)N[C@@H](Cc1cnc[nH]1)C(=O)O. Put plainly: purified protein, by the assay type. To be noted: other: substrate FVH; apparent Km; 4A.A/TODB/POD.
Protocol: (§4) Escherichia coli BL21 (DE3) transformed with pEPN (pET28a-PnFPOX) was grown aerobically at 37° C. in LB medium (7 L) containing 50 μg kanamycin ml^−1. After reaching an A660 nm value of 1.4, the cells were induced with 0.3 mM IPTG, and the incubation was continued at 25° C. until reaching an A660 nm value of 3.0. The cells were harvested by centrifugation and a quarter of harvested cells (approx. 10.5 g) were resuspended in 10 mM PPB, pH 7.0, and lysed by 2 passages through a French press (1,000 kg cm^−2). The lysate was centrifuged at 10,000 g at 4° C. for 20 min, and the supernatant was centrifuged at 40,000 rpm at 4° C. for 90 min. The supernatant was then dialyzed against 10 mM PPB, pH 8.0, containing 25 μM FAD.
(§5) Ammonium sulfate was added to the dialyzed supernatant to 35% saturation and then the precipitate formed was pelleted by centrifugation at 15,000 g for 20 min. The resultant precipitate was dissolved in 10 mM PPB, pH 8.0, containing 25 μM FAD and 1% mannose and dialyzed at 4° C. against the same buffer, and subsequently dialyzed against 10 mM PPB, pH 8.0, containing 25 μM FAD. The dialyzed enzyme solution was applied to a RESOURCE Q column (GE Healthcare) equilibrated with 10 mM PPB, pH 8.0. […] The active flow-through fractions were collected and dialyzed against 10 mM PPB, pH 7.0.
(§6) The dialyzed enzyme solution was applied to a HiLoad 16/60 Superdex 75 pg column (GE Healthcare) equilibrated with 10 mM PPB, pH 7.0. Gel filtration chromatography was carried out with the same buffer. The active fractions were collected, and the purified enzyme solution was dialyzed against 10 mM PPB, pH 7.0 containing 100 μM FAD, and stored at 4° C. The purity of the purified enzyme was confirmed by SDS-PAGE, and the protein concentration was measured using a DC Protein Assay Kit (Bio-Rad, CA, USA).
Data set [4] has as its system CC(C)[C@H](NCC(=O)[C@@H](O)[C@H](O)[C@H](O)CO)C(=O)O. Put plainly: purified protein, by the assay type. To be noted: other: substrate FV; apparent Km; 4A.A/TODB/POD.
Protocol: as §4, §5, §6
A short description of data set [5]: Oxidase activity, 4AA/TODB/POD system, substrate FVH. Type of data set: biochemical. As to the method:
(§1) The water-soluble fraction was examined for the oxidase activity using a POD/TODB/4A.A. method with three substrates: fructosyl valine (FV), fructosyl lysine (FK), and fructosyl valyl histidine (FVH).
(§2) The oxidase activity was assayed using 4A.A/TODB/POD with varying concentrations of substrates, FV, FK and FVH. The absorbance at 546 nm was monitored. Typical Michaelis-Menten curves were obtained with FV and FVH, but not with FK. […] A high VmaxKm^−1 value for FV (42.8 U mg^−1 mM^−1) indicates high specificity toward FV of this enzyme. It should be noted that VmaxKm^−1 value for FVH is also considerable (14.7 U mg^−1 mM^−1, 34% of VmaxKm^−1 for FV). This activity toward FVH of PnFPOX will be beneficial in the enzyme-based measurement of HbA1c. For comparison, the oxidase activity of known fructosyl peptidyl oxidases (FPOX-C and FPOX-E) was also included in the table (Hirokawa et al. ibid).
(§3) The oxidase activity of the fructosyl peptidyl oxidases PnFPOX and FPOX-C on a fructosyl hexapeptide (F6P: Fru-Val-His-Leu-Thr-Pro-Glu) was assayed without addition of Proteinase N. The enzyme activity was measured in a 4AA/TODB/POD system as described in Example 2, with the substrate concentration of 1 mM for FV and FVH and 5 mM for F6P.

A short description of data set [6]: Oxidase activity, 4AA/TODB/POD system, substrate FV. Type of data set: biochemical. As to the method:
as §1, §2, §3

A short description of data set [7]: Thermostability: residual activity after heat treatment. It is filed as physicochemical. To be noted: heat-treated at 50° C. for 10 minutes in 10 mM PPB (pH 7.0). As to the method: Thermostability of PnFPOX was evaluated by incubating the purified enzyme solution in 10 mM PPB (pH 7.0) at various temperatures for 10 minutes and then measuring the residual activity. The activity of PnFPOX was maintained about 75% up to 50° C. […] (Hirokawa et al. ibid).

The nature of data set [8]: Oxidase activity toward fructosyl hexapeptide without Proteinase N, 4AA/TODB/POD system. Type of data set: biochemical. As to the method:
as §3

Data set [9] in a line: Oxidase activity, 4AA/TODB/POD system, substrate FK. To be noted: water-soluble fraction; POD/TODB/4A.A. method; in words. Type of data set: biochemical. As to the method:
as §1, §2

Setting [10] is: substrate concentration 1 mM, 4AA/TODB/POD.
Where [11] appears, read: water-soluble fraction, POD/TODB/4A.A. method, in words.

As a reminder, the Km is the concentration of substrate that gives half-maximal velocity. Take `N[C@@H](CCCCNCC(=O)[C@@H](O)[C@H](O)[C@H](O)CO)C(=O)O` [FK, fructosyl lysine]: the Km in data set [1] (substrate FK) is 10600 µM. The values for the Vmax in [1] (substrate FK) and in data set [2] (substrate FK) were 23.4 U/mg and 0.42 U/mg, respectively.

For the molecule `CC(C)[C@H](NCC(=O)[C@@H](O)[C@H](O)[C@H](O)CO)C(=O)N[C@@H](Cc1cnc[nH]1)C(=O)O` [FVH, fructosyl valyl histidine], in [1] (substrate FVH), the Km was 2810 µM and the Vmax is 23.8 U/mg. For the same molecule, in [2] (substrate FVH), the Km is 2760 µM and the Vmax is 5.43 U/mg.

On to `CC(C)[C@H](NCC(=O)[C@@H](O)[C@H](O)[C@H](O)CO)C(=O)O` [FV, fructosyl valine], for which, in [1] (substrate FV), the Km is 824 µM and the Vmax is reported as 66.0 U/mg. Moreover, in [2] (substrate FV), the Km was 318 µM and the Vmax is 20.6 U/mg.

On to “fructosyl peptidyl oxidase PnFPOX from Phaeosphaeria nodorum, SEQ ID NO:1 (recombinant, purified) (Parastagonospora nodorum SN15)”, for which, in data set [3], the Km is 200 µM and the Vmax was determined as 2.97 U/mg. In addition, in data set [4], the Km turned out to be 640 µM and the Vmax amounted to 27.6 U/mg.

B1: PnFPOX: fructosyl peptidyl oxidase derived from Phaeosphaeria nodorum, amino acid sequence SEQ ID NO:1, recombinant from E. coli (protein, listed as Phaeosphaeria nodorum)
chain: MAPSRANTSVIVVGGGGTIGSSTALHLVRSGYTPSNVTVLDAYPIPSSQSAGNDLNKIMGVSLRNPVDLQLALEARQMWNEDELFKKFFHNTGRLDCAHGEKDIADLKSGYQALVDAGLDATNEWLDSEDEILKRMPLLSRDQIKGWKAIFSKDGGWLAAAKAINAVGEYLRDQGVRFGFYGAGSFKAPLLAEGVCIGVETVDGTRYYADKVVLAAGAWSPTLVELHEQCVSKAWVYGHIQLTPEEAARYKNSPVVYNGDVGFFFEPNEHGVIKVCDEFPGFTRFKMHQPFGAKAPKRISVPRSHAKHPTDTIPDASDVSIRRAIATFMPQFKNKKMFNQAMCWCTDTADAALLICEHPEWKNFVLATGDSGHSFKLLPNIGKHVVELLEGTLADDLAHAWRWRPGSGDALKSRRSAPAKDLADMPGWNHDKPRANL
Regarding B1, in [5], the “VmaxKm^−1 for FVH as % of VmaxKm^−1 for FV” value turned out to be 34%. Also, the “FVH (U/mg) oxidase activity” value in data set [5] (setting [10]) is recorded as 0.11 U/mg. Further, the “oxidizing activity to FVH” value in [5] (setting [11]) is “showed oxidizing activity”. Besides, in data set [6] (setting [10]), the “FV (U/mg) oxidase activity” value amounted to 1.3 U/mg. Also, the “oxidizing activity to FV” value in [6] (setting [11]) was “showed oxidizing activity”. For the same molecule, the residual activity result in data set [7] is “about 75%”. In addition, the “capability of oxidizing fructosyl hexapeptide” value in [8] (in words) is listed as “capable of oxidizing fructosyl hexapeptide”. In addition, the “F6P (U/mg) oxidase activity” value in data set [8] (substrate concentration 5 mM, without Proteinase N) is given as 1.3 × 10^−3 U/mg. Also, the “oxidizing activity to FK” value in [9] was “showed oxidizing activity”.
